The source of these data is US20230285394A1, “METHODS OF TREATMENT OF NON-SMALL-CELL LUNG CARCINOMA USING TELISOTUZUMMAB VEDOTIN AND OSIMERTINIB” (AbbVie Biotherapeutics Inc., priority 2022, published 2023).

The subject of assay [1] is c-Met positive (≥25% 3+ IHC staining) advanced non-squamous NSCLC, EGFR mutant. Put plainly: Phase 2 study (NCT03539536) of Teliso-V monotherapy, objective response rate. It counts as in vivo, human. The following applies: Teliso-V monotherapy 1.9 mg/kg.
The test system of the next assay is c-Met expressing NSCLC. Put plainly: First in human phase I trial of Teliso-V monotherapy (NCT02099058), best overall response by c-Met IHC cutoff. Type of assay: in vivo.
Description: (§1) The clinical modeling data was obtained from the Teliso-V monotherapy trial NCT02099058. Abbreviations shown in FIG. 5 and determination of the values in the table are as follow: PPA (positive percent agreement): #oV positive uV positive/Total uV positive; NPA (Negative percent agreement): #oV negative uV negative/Total uV negative; OPA (Overall percent agreement): #oV positive uV positive+#oV negative uV negative/Total number of samples tested; PPV (Positive predictive value): #of oV positive uV positive/total #of oV positive; NPV (Negative predictive value): #of oV negative uV negative/Total oV negative. % BOR represents the percent best overall response.
as §1, with “FIG. 6” for “FIG. 5”
An analytical method comparison between SP44 Ultraview and SP44 OptiView on a large cohort of commercial NSCLC tissues was performed (FIG. 4). […] The overall percent agreement at this cutoff between the two assays was 93%. The first in human phase I clinical trial for Teliso-V monotherapy in NSCLC enrolled patients with an H-score of 150 using the SP44 UltraView assay. Upon re-scoring of the slides, the optimal cutoff utilizing the SP44 Ultraview IHC assay was ≥25% 3+ with a best overall response of 56%. The best overall response for the OptiView IHC assay at the same cutoff, ≥25% 3+, utilizing the phase I data through statistical modeling was 52% (FIG. 5).
The first in human phase I clinical trial for Teliso-V monotherapy in NSCLC enrolled patients with an H-score of 150 using the SP44 UltraView assay. […] The best overall response for the OptiView IHC assay at the same cutoff, ≥50% 3+, utilizing the phase I data through statistical modeling was 63% (FIG. 6).

B1: telisotuzumab vedotin (conjugate, chains of the INN, looked up)
VH: QVQLVQSGAEVKKPGASVKVSCKASGYIFTAYTMHWVRQAPGQGLEWMGWIKPNNGLANYAQKFQGRVTMTRDTSISTAYMELSRLRSDDTAVYYCARSEITTEFDYWGQGTLVTVSS
VL: DIVMTQSPDSLAVSLGERATINCKSSESVDSYANSFLHWYQQKPGQPPKLLIYRASTRESGVPDRFSGSGSGTDFTLTISSLQAEDVAVYYCQQSKEDPLTFGGGTKVEIK
modifications: vc-MMAE payload
notes: ADC of the c-Met targeting antibody ABT-700 conjugated to monomethyl auristatin E (MMAE) through a valine citrulline linker
Consider B1, for which the “ORR (CR + PR)” value in assay [1] (non-squamous NSCLC EGFR mutant patients, c-Met ≥25% 3+, interim analysis) is reported as 11.6%; in assay [1] (subset of EGFR mutant subjects previously treated with osimertinib) it was 0%; in assay [1] (subset of EGFR mutant subjects previously treated with osimertinib, listed as Teliso V), 0%. In addition, the best overall response was found to be 52% in the assay on c-Met expressing NSCLC (patients at ≥25% 3+ cutoff, OptiView IHC assay, phase I data through statistical modeling); 56% in the assay on c-Met expressing NSCLC (patients at ≥25% 3+ cutoff, SP44 Ultraview IHC assay, re-scored slides); 63% with c-Met expressing NSCLC (patients at ≥50% 3+ cutoff, OptiView IHC assay, phase I data through statistical modeling); 67% in the assay on c-Met expressing NSCLC (patients at ≥50% 3+ membrane staining cutoff, SP44 Ultraview IHC assay, re-scored slides).
